{
  "source": "patent US20050064403A1",
  "molecules": {"B1": {"name": "Papain (protein)", "chain": "IPEYVDWRQKGAVTPVKNQGSCGSCWAFSAVVTIEGIIKIRTGNLNEYSEQELLDCDRRSYGCNGGYPWSALQLVAQYGIHYRNTYPYEGVQRYCRSREKGPYAAKTDGVRQVQPYNEGALLYSIANQPVSVVLEAAGKDFQLYRGGIFVGPCGNKVDHAVAAVGYGPNYILIKNSWGTGWGENGYIRIKRGTGNSYGVCGLYTSSFYPVKN"}, "B2": {"name": "cysteine proteinase encoded by Aspergillus niger gene nr 28 (protein)", "chain": "MSKLSAAISKLSLSTIATTLLLLTPPTTAYFYKYPALFVYKDTNCTDISFSLVYPSLGNCNGGYYDYAGSFQMFNIDAAYTCNGSDSTLMFEMYNSSGSDCGDESDLLFRQPVTEECTVADVESPGPLEMPVWFELGSLLGNCGGMAGTMLFGVGILEGGLETKLYWKCYSSRLNTSVTVHRLSLILSMGCTSVSDSYNELAAAHYYEDL"}},
  "key": {"[1]": {"target": "Kunitz trypsin inhibitor from soybeans (soybean) (UniProt P01070)", "assay": "cell-based or functional assay"}, "[2]": {"target": "T1, Kunitz trypsin inhibitor from soybeans (UniProt P01070)", "T1 sequence": "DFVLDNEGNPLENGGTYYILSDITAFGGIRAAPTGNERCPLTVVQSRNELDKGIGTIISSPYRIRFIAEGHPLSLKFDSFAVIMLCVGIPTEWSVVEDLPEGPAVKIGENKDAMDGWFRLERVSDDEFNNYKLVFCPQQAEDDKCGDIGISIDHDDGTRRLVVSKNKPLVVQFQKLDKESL"}, "[3]": {"target": "T2, Kunitz trypsin inhibitor from soybeans, P01070", "T2 chain": "T1 sequence"}},
  "data": [
    {"molecule": "Albumin (control)", "values": [
      {"measurement": "Remaining TI activity (%)", "setting": "[1]", "result": 100, "unit": "%"}
    ]},
    {"molecule": "Bromelain", "values": [
      {"measurement": "Remaining TI activity (%)", "setting": "[2]", "result": 30, "unit": "%"}
    ]},
    {"molecule": "B1", "values": [
      {"measurement": "Remaining TI activity (%)", "setting": "[3]", "result": 25, "unit": "%"}
    ]},
    {"molecule": "B2", "values": [
      {"measurement": "Remaining TI activity (%)", "setting": "[3]", "result": 26, "unit": "%"}
    ]}
  ]
}
